# Source: patent US20150064134A1
# Molecular target: MAPKAP-K2(h) (human) (UniProt P49137)
# Assay: cell-based or functional assay
substance,measurement,value
MMI-0100 (peptide),IC50 (radiometric kinase activity assay),22 µM
